Data as given in PMC10641069, “Intra- and inter-molecular regulation by intrinsically-disordered regions governs PUF protein RNA binding” (Nature Communications, 2023).

Legend:
FBF-2 RBD+CT Loop6A = molecular target: T1, FBF-2 RBD+CT Loop6A (Caenorhabditis elegans, UniProt Q09312, D594A/E592A/E597A/E599A/E604A/E605A); assay: ITC, peptide into FBF-2 RBD + CT Loop6A, no RNA; assay type: binding, C. elegans; conditions: 20 °C, pH 7.4
T1 construct: A cDNA fragment encoding C. elegans FBF-2 RBD + CT (residues 164-632) was cloned into the pSMT3 vector; His6-SUMO (N, cleaved yes); made in house; host or cells: E. coli BL21-CodonPlus (DE3)-RIL (as for wild type)
T1 sequence (Q09312 164-632 E592A/D594A/E597A/E599A/E604A/E605A): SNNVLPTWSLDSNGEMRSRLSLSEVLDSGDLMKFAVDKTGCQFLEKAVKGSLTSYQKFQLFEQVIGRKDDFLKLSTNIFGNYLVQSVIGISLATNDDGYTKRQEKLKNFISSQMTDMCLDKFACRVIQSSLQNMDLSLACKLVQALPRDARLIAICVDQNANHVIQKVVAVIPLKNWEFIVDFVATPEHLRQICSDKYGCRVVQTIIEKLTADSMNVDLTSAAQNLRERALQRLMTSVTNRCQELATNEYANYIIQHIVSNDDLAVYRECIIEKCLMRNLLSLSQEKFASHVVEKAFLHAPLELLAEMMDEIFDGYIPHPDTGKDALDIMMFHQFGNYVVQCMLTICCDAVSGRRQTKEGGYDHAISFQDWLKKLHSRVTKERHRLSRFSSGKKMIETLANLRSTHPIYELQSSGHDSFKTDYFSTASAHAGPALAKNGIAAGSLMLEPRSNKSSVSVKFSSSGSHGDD
Description: Experiments were performed at 20 °C using a MicroCal PEAQ-ITC Automated (Malvern Instruments) with a 200-μL standard cell and a 40-μL titration syringe. FBF-2 and LST-1 variants were prepared in a buffer of 20 mM HEPES pH 7.4, 150 mM NaCl, and 0.5 mM TCEP by gel filtration. LST-1 (100–400 µM) was titrated from the syringe into the cell containing FBF-2 (10–30 µM) in 2 µl aliquots. Experiments were performed in duplicate due to the limitation of the amount of protein needed. Data were analyzed using the MicroCal PEAQ-ITC Analysis Software (version 1.40) provided by the manufacturer with the one-site model (Table S3).
Supplementary Table 3. Protein interaction affinities, stoichiometries, and thermodynamic parameters between FBF-2 CT/LST-1 variants and FBF-2 measured by ITC. Two technical replicates (n=2 independent experiments) were performed for each analysis with similar results, and the values are shown for each replicate. Source data are provided as a Source Data file. […]
RBD+CT LST-1 A none Not detected
RBD FBF-2 CT none Not detected
1 Reported previously 18.

gld-1 FBEa RNA = assay: Electrophoretic mobility shift assay (EMSA), RNA binding; parameters: species or system C. elegans; conditions: LST-1 B 50 μM
Description: A 3′-Cy5-labeled synthetic RNA was ordered from IDT (gld-1 FBEa, 5′-[…]-3′). The FBF-2 proteins were serially diluted 2-fold from the highest concentration of 10 µM in the buffer used for gel filtration (20 mM HEPES pH 7.4, 150 mM NaCl, and 0.5 mM TCEP). 10 µl of the serially diluted protein samples were mixed with 10 µl RNA (10 nM) in a 2× buffer of 10 mM HEPES pH 7.4, 0.01% (v/v) Tween 20, 0.1 mg/ml BSA, 0.1 mg/ml yeast tRNA, and 2 mM DTT. For experiments in the presence of LST-1, LST-1 proteins at constant concentration were preincubated with FBF-2 at 4 °C for 2 h. The LST-1 concentrations were chosen based on their Kd’s for interaction with FBF-2. The final FBF-2 concentrations ranged from 5000 nM to 0.6 nM, and the LST-1 A or B concentrations were constant at 150 μM or 50 μM, respectively. The protein-RNA mixtures were incubated at 4 °C overnight. The samples were resolved on 10% TBE polyacrylamide gels run at constant voltage (100 V) with 1× TBE buffer at room temperature for 35 min. The gels were scanned and visualized with a Typhoon FLA 9500 imager using the Cy5 channel (excitation wavelength 635 nm). Band intensities were quantified with ImageQuant 5.2 (Cytiva). The data were fit with GraphPad Prism (version 9.2.0) using nonlinear regression with a one-site specific binding model. Mean Kd’s and standard error of the mean (SEM) from three or more technical replicates are reported (Supplementary Table 4). Full scan images for the replicates shown in the main figures and gel images for all replicates are included in a source data file.

**Q.** For “LST-1 B: LST-1 B peptide, residues 67–98, expressed in E. coli (SSSPQQRSGLRSQKLHLTYIEKNKRVRAMIPQ; left off: His6-SUMO, N-terminal, cleaved)”, which “-T∆S” value (FBF-2 RBD+CT Loop6A; replicate 1) is on record?
**A.** Its value is 5.07 kcal/mol.

**Q.** And the “∆G” value (FBF-2 RBD+CT Loop6A; replicate 1)?
**A.** Its value is -8.01 kcal/mol.

**Q.** What about the “∆H” value (FBF-2 RBD+CT Loop6A; replicate 1) of the same substance?
**A.** The value was -13.1 kcal/mol.

**Q.** And the “-T∆S” value (FBF-2 RBD+CT Loop6A; replicate 2)?
**A.** Its value is 3.59 kcal/mol.

**Q.** And the “∆G” value (FBF-2 RBD+CT Loop6A; replicate 2)?
**A.** Its value is -7.91 kcal/mol.

**Q.** What about the “∆H” value (FBF-2 RBD+CT Loop6A; replicate 2) of the same substance?
**A.** Its value is -11.5 kcal/mol.

**Q.** And the “effect on RNA-binding affinity” value (gld-1 FBEa RNA; of FBF-2 RBD + CT L610A)?
**A.** Its value is “little to no effect”.

**Q.** And the “effect on RNA-binding affinity” value (gld-1 FBEa RNA; of FBF-2 RBD + CT Y479A)?
**A.** Its value is “no effect”.
